Experiments:
[1] = biological target: sACE2_(2).v2.4-IgG1 (human) (UniProt Q9BYF1); test: BLI
[2] = biological target: WT sACE2_(2)-IgG1 (human) (UniProt Q9BYF1); test: BLI

| Substance | Kd [1] [nM] | koff [1] [s⁻¹] | kon [1] [M⁻¹ s⁻¹] | Kd [2] [nM] | koff [2] [s⁻¹] | kon [2] [M⁻¹ s⁻¹] |
| --- | --- | --- | --- | --- | --- | --- |
| RsSHC014 RBD-8h (domain or fragment) | 1.3 | 0.002 | 1.6e+06 | 29 | 0.026 | 880000 |
| SARS-CoV-2 RBD-8h (from UniProt P0DTC2 333-529) (domain or fragment) | 0.4 | 0.00028 | 660000 |  |  |  |

From paper PMC7888922
